Experiment: label from the status in PepcDB records
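Note: failed if final PepcDB status was selected cloned or expressed and not failed if soluble or beyond.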

| Sequence | protein production |
| --- | --- |
| MVVNKRLILILLFILNTAKSDELSWKGNDFTLYARQMPLAEVLHLLSENYDTAITISPLITATFSGKIPPGPPVDILNNLAAQYDLLTWFDGSMLYVYPASLLKHQVITFNILSTGRFIHYLRSQNILSSPGCEVKEITGTKAVEVSGVPSCLTRISQLASVLDNALIKRKDSAVSVSIYTLKYATAMDTQYQYRDQSVVVPGVVSVLREMSKTSVPASSTTNGSPATQALPMFAADPRQNAVIVRDYAANMAGYRKLITELDQRQQMIEISVKIIDVNAGDINQLGIDWGTAVSLGGKKIAFNTGLNDGGASGFSTVISDTSNFMVRLNALEKSSQAYVLSQPSVVTLNNIQAVLDKNITFYTKLQGEKVAKLESITTGSLLRVTPRLLNDNGTQKIMLNLNIQDGQQSDTQSETDPLPEVQNSEIASQATLLAGQSLLLGGFKQGKQIHSQNKIPLLGDIPVVGHLFRNDTTQVHSVIRLFLIKASVVNNGISHG | failed |
| MGKVQPVYWRQLRDIEMENNFLLDVRTPDEFSLNTLPGAVNIPLDELRDRLDELPKDKMIYTFCAVGLRGYLAYRILVQHGFEKVRNLSGGLKTYHAAAAPIILREESENEVPLEHHHHHH | not failed |
| MYCKGRREREAYIVVKIDLITGFLGSGKTTFIRKYVKYLVDKGYNVGILENDYGAVNVDMMLLQDLMGPNCHAEMVAGGCGEDCHKRRFKTKLIAMGMSGYDRVIVEPSGIFDVDEFFDTLHEEPLDRWYEVGSIIAIVDAKLDTDMSRQSRYVLASEIANCGALVMSKTSGVSEDEISHTKEFVNKTLEEFQCRRRFDGDVITKAWELFGSEDYERFMSVGYKLNDFTKLWFKQSDVYSSVYIMNRNFTREQLVDIVNRVFSDKDCGDVFRIKGFFSVEQDSWLELNATVHKTEIKPIDKGQKIIIIIGSDLMEDKIKQYFEE | failed |
| MKKQLIILTTLSTCIFLSACNDNNDSGSYVSSPSIPENNIQNPVVRMDAYTSTDMSLVANESLLMTYKMLGINNKEVQATALVFTPKGVPPVGGWPIVAWAHGTTGVADVCAPSRNVMDENVKTMITQLLAQGYVVVAPDYEGLGEPSGKEIHPFLNVKSEAYSITDAVVAAKSYLGAKAATRWVAVGHSQGGQAALGAAQYASRAKLTYKGTIAVAPASNLDLILNAGELSAANQPVAVQIPTYTNLDTYTALITAGLRNPNPSLQYSQIFKTPSDSIAAQAESVCAPALGQSFAAGLTEYSNKNNNTLVGYGRTQDGFLNLPVVKNFTSTDGQPLTVKVSTPIKIYQGQADTTVPLIATNKLVTEAKLAGTNINFITNETWTHGSAYSLNISNIVTDVNTLFTQ | failed |
| MKVAILGAGCYRTHAASGITNFSRASQVAKEAGIPEIAMTHSTITMGAELLHLIPEITEVVVSDPCFAEEPGMVVLDQFDYKAVMEAHLAGDAEKVMPEIREAVKAKAKETPKPPKGCIHFVHPETVGLKVTASDVEAVKDADIVITWLPKGGSQPAIIEKFASEIKKGAIVTHACTIPTPKFAKIFKDLGRDDLNIIAYHPGAVPEMKGQAFLSEGLADAEKVEEFYCMAKTARGEAFKMPANLISPVCDMGSAVTAPVYAAILAYRDAVTQILGAPADFAQMMADEAISQILDLMRNEGIKNMEDKLNPKALTGTADSMCFGPLADILPASLKVLEKHANENKCECGCSIKP | failed |
| MKSKNSLLLTTVFTLLVTITTSNVFAAETATVKADENSTDKKNVSKKSYRVSKKVPAMRNRVYSQLSRAQQLADDGDKIEGFEVLAEVEDRLNSLNSYERAMLFNFYGFMYYANEDITLAVDSFNKVIAETAIPDSLIISTLYSLAQLSMQQQHYKEALDYLTQWREINAKELTGTQEMLFAQVYYQDKDFVNSLKHSEMAISLVEAKNKHPKENWLTLQRATYYELKQPKQVTKVMEKLIRLYDKPQYWLQLSSMYGEIGEEDKQMAVMEAAYQAGYITKASDILTLSQLYLFHGAPFKSAAVLEDSIAQGSIFADEDNLSMLARAYLTAKEYDKATKVLVRVSDIAQSGKHDALLAQTYLNTEQWQAAINSSTLALARYAKHKENKGNQVNDIANMHLILGMANFNLKKFERSLTSFAKAAQFTSTKKTALQWGKYVEREQQHHKVQLAMLN | failed |
| MGFPRSIVLIAALLGGAVSGLTACSSFPFWSAGKEEDTDIKDEHADWGPAQFYAEAKHAMMDGSYDKAIKLYEKLEARYPFGDYATQAQIDVAFCYYKNNEPESAIAAVDRFIKLNPTEPHVDYAYYLRGLINYNRGIGFIDRWLPTDSSQRDPGSARDAYNDFETLLNKFPNSVYREDARQRAIALRNNLAMYDIHVADYYMRRRAYVAAIRRSAEVVQKYQRTQAIPHALRIMEDAYRQLDMPQMADDIARVYALNYAEGRLSKDEDYERTVMEEVWDFIGFDK | failed |
| MQPETSAQYQHRFSQAIRGGEAADGLPQDRLNVYIRLIRNNIHSFIDRCYTETRQYFDSKEWSRLKEGFVRDARAQTPYFQEIPGEFLQYCQSLPLSDGILALMDFEYTQLLAEVAQIPDIPDIHYSNDSKYTPSPAAFIRQYRYDVTHDLQEAETALLIWRNAEDDVMYQTLDGFDMMLLEIMGSSALSFDTLAQTLVEFMPKADNWKNILLGKWSGWIEQRIIIPSLSAISENMEGNSPSQNHLSA | not failed |
| MGSSHHHHHHSSGRENLYFQGMKEVEKNEIKRLSDRLDAIRHQQADLSLVEAADKYAELEKEKATLEAEIARLREVHSQKLSKEAQKLMKMPFQRAITKKEQADMGKLKKSVRGLVVVHPMTALGREMGLEEMTGFSKTTF | not failed |
| MTKKKVYIVSHSHWDREWYLPYEEHHMRLIELVDNVLDLIENDPEFNSFHLDGQTIILDDYLQVRPEKKEAVKKAVQAGKLKIGPFYILQDDFLISSESNVRNMLIGHLESQKWGAPVQLGYFPDTFGNMGQTPQMMQLANLPAAAFGRGVKPIGFDNQVLESDYSSQYSEMWWEGPDQTKIFGLLFANWYSNGNEIPSEKEAAIAFWKQKLADVERYASTNHLLMMNGVDHQPVQRDITKAIALANELFPEYEFIHSNFDDYLKAVQEELPEDLGTVTGELTSQETDGWYTLANTSSARVYLKQWNTKVQRQLENIAEPLAAMAYEVTGDYPHDQFDYAWKTLLQNHPHDSICGCSVDEVHRGMMTRFENANDVGHFLADEATRQLTEAIDTSVFPEKAHPFVLFNTSGYQKTEVVTVEVEIERLPFYTGKPEDLYHELKQKATPDYQVIDPTGKAVASRIVKEDVRFGYDLPKDAFRQPYMAKYLTVELSVKEMAPFSWDSFALIQGETKAFEGSLLAQPATNEMENEFIQVKIENNGSLTIADKKTGETFSKLLTFEDTGDIGNEYIFFKPTEDQGITTENVTAEITNKENSPVKASYQIKQTVMLPVAADERLEEEQKAVREFRERLAQRSTTLRPFEITTMVTMIKESNQLFFETTINNQIKDHRLRVLFPTGMVTETHEADSIYEVVTRPNQVSDTWENPTNPQHQQAFVNVHDQNKGVTIFNEGLNEYEVLADGTIAVTLIRCVGELGDWGYFATPEAQCQGEYTFKYGLSLHGKPEERFATYQQAYSAQIPFTAATTARHEGKLAPNHVYLTTAEGPIGWTAVKRQEQTNHLVVRGFNLTAQNIPCELHKETQPATCLTNVLEEPLTPAIEVDAPLRPFEIRTWRFEK | not failed |
| MYIPNAFRESDTHNLQEHMDKTRLAILVTQGDDGLHATHLPLLLRSDEGPYGTLYGHMAKANPQWQQLNADAEAMVIFPGEDAYVSPSFYPSKAEHGKVVPTWNYLAVHAYGQAECFTDPDRLHQLLNDLTDRHESSRAQPWSINDAPADYIAKMLGAIVGFSIPVQRL | failed |
| MFNQLVKVIPNLFTIGNLLCGVFSITLNMSEYLGAASILIFFSAVLDFLDGRIARKLKVNSEFGVELDSLADIVSFGVAPALLFHTIATPSILTSLAFILFPTMGALRLAKFSIKPTIGYFKGLPIPAAGLSLAGMALFSYSNAWITLILALLMVSPIRFKKF | not failed |
| MERISLSFVGDVMLAGSATDTLQRYGYSYPFSATAAELRRSDLVVGNLEAPLTDGGREFRAKRFRFKASPVAAAALKRAGFSVMTLANNHMMDFGADGLSDTIHHLNRNGIAFAGAGPSIADARREASVTVRGQTVAFLAYSLTQPIEFFATEGRPGTAPGYAGHYLADIRRVRSSADHVVVSFHWGQERAALPSPYQIETAHRAIDAGADIVIGHHPHVLQGIEIYRGSPIFYSLGNFAFGSRSPSADRSIIARVTLGEGPPIVEVIPLNVLFREVRFQPAILTGRKAADVVDRLNRLSAPFSTVITSTAGSHLVAPAEANARLARRQLEHHHHHH | failed |
| MANLAASTCLYSWLLVLLLSSVSAIIDEDTQVYIVYMGSLSSRADYIPTSDHMSILQQVTGESSIEGRLVRSYKRSFNGFAARLTESERTLIAEIEGVVSVFPNKILQLHTTTSWDFMGVKEGKNTKRNLAIESDTIIGVIDTGIWPESKSFSDKGFGPPPKKWKGVCSGGKNFTCNNKLIGARDYTSEGTRDTSGHGTHTASTAAGNAVKDTSFFGIGNGTVRGGVPASRIAAYKVCTDSGCSSEALLSSFDDAIADGVDLITISIGFQFPSIFEDDPIAIGAFHAMAKGILTVSSAGNSGPKPTTVSHVAPWIFTVAASTTNRGFITKVVLGNGKTLAGRSVNAFDMKGKKYPLVYGKSAASSACDAKTAALCAPACLNKSRVKGKILVCGGPSGYKIAKSVGAIAIIDKSPRPDVAFTHHLPASGLKAKDFKSLVSYIESQDSPQAAVLKTETIFNRTSPVIASFSSRGPNTIAVDILKPDITAPGVEILAAFSPNGEPSEDDTRRVKYSVFSGTSMACPHVAGVAAYVKTFYPRWSPSMIQSAIMTTAWPVKAKGRGIASTEFAYGAGHVDPMAALNPGLVYELDKADHIAFLCGMNYTSKTLKIISGDTVKCSKKNKILPRNLNYPSMSAKLSGTDSTFSVTFNRTLTNVGTPNSTYKSKVVAGHGSKLSIKVTPSVLYFKTVNEKQSFSVTVTGSDVDSEVPSSANLIWSDGTHNVRSPIVVYIMVVDEA | failed |
| MAKNTFTPELLEKHFTKNEWKKGARIFQANGVKTCALDGEVIRGVVFSERSRESSYLTRLVFDGKFGDIASYCDCYVGRDCKHGSALAQCYIHEHFDRNSIATSETIIDKWLNRFQAQPTRYQPNTQQKSLLYFLKPNPYNEDDFLTLGIKSARPKNSGGWNSSIGSEYSASSLINSAYANDEDVAVLTELMRTNQYGDTIKYFDLFERIIKTNRSFWHTTYDLSEPVTLSEPLEAEWQWLALGNSLHTLKLVLMQPSESIRIIKAQPLCFYDEEKNCFGKINTNTQCDFEAGLLNSPIFEEDKLPWIMSKLSMSLGDAVKRLPKPKTKYSQELTQPDVYLHFTTPVASNRQTGYVQVNFSYQGNLVNPHDENVTITPSNVTKLSIDSDAQSDADSNIESGAYSNIEDEVERENVSPREIKIYRDLAFEQTVIDKLTTLKFNPQPKPKRYTYTSQDDLNKSKTPEFAMLMQGSVLWQRFLHQELSPLEDLGWHITFADDFYYKALSTDSVFDAEVMETDDHDFFSLGLNLTIDGKKMPAFPILLSAIEQLPRSALLDREKEDLISPDSPIYVDLDNGGFVALRYQSVQPILKQFIELFMPNALSHDGTIELSRFQGHQTLSMLDDQGMIAKGTSKLRALADKLKDFQQVTTIPVPEGLNATLRTYQHQGLNWLQFLREYQLNGILADDMGLGKTIQTLAHLLIEKQQGRLTKPILIVAPTSVIFNWANEIDKFTPQLSYQVLHGNKRHEQFGCLEGVENGENQVDIIITSYALITKDLAHYTDRKFYYLVLDEAHYIKNTKTKLYQAFLTLKAQHKLCLTGTPMENHLGEFWAQFNFLLPGFLGGQRQFTKLFRTPIEKHGELERKQLLNQRIKPFILRRTKDKIATELPPKTEIIQTLRIEGKQAELYESVRLAMDSRLKDIIADKGLKRSQIEVLDALLKLRQVCNHPKLLKLEGAKKVNQSAKLDYLMETLPEQIDEGRKILIFSQFTSMLSLIEDELIDAGIGYVKLTGSTTKRQEVVDKFQRGEVPVFLISLRAGGVGLNLTAADTVIHFDPWWNPAVENQATDRAYRIGQNKPVFVYKLIIENSIEEKIQKIQQNKAELAKALLSEEVSDNKLSLTDDILDSLLTPLS | failed |
| MRLITHNMLSCNIKGVTSGFPLRIEAGNVIEKEVDFNPDFIRHMFAKIEWKALVEGARSMGYAELPEESPDAAVLKSDEPFLKKLHHALLELHLEEGALVCPETGRKFPVNKGIPNMLLHEDEV | failed |

Reference: a protein production outcome set (Wang et al. 2014)
